Measurements from the supplement of paper PMC9428881.
± gives the standard error.

Experiment: background-corrected fluorescence of 3'-dye-labeled ssDNA relative to brightest sequence (3'-GCGCG) (fraction); higher = brighter dye fluorescence (less quenching)
Description: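 Single-stranded DNA is synthesized in situ on glass microarrays by 5'->3' photolithographic synthesis, with a Cy3 or Cy5 phosphoramidite coupled at the 3' end next to all 1024 permuted pentamers P1-P5. The construct is 5'-T5-(ACGT minus P5..P1 trinucleotides)-T15-P5P4P3P2P1-dye-3'; the dye is a 3' terminal modification, not part of the sequence. Arrays were scanned at 532 nm (Cy3) or 635 nm (Cy5), background from unlabeled oligos was subtracted, and values are averaged over 10 replicate features per array and at least 3 independent syntheses.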

Sequence	background-corrected fluorescence (dye: Cy3 (3' terminal))	background-corrected fluorescence (dye: Cy5 (3' terminal))
TTTTTTGATGATGCTCATGCTTTTTTTTTTTTTTTCCAGA [AGACC]	0.635 ± 0.027	0.527 ± 0.028
TTTTTGCATGATCAGCAGCATTTTTTTTTTTTTTTTCGTT [TTGCT]	0.55 ± 0.029	0.417 ± 0.026
TTTTTTGCTGAGCAGCATGCTTTTTTTTTTTTTTTACTTA [ATTCA]	0.493 ± 0.06	0.379 ± 0.027
TTTTTTGCTGCTGATCATGATTTTTTTTTTTTTTTAACGC [CGCAA]	0.547 ± 0.021	0.436 ± 0.057
TTTTTTGCTGATGCTCAGCATTTTTTTTTTTTTTTACAGT [TGACA]	0.629 ± 0.039	0.474 ± 0.03
TTTTTTGCTGCTGATGCGCATTTTTTTTTTTTTTTAACAT [TACAA]	0.529 ± 0.035	0.374 ± 0.021
TTTTTTGCTCATCATGATGCTTTTTTTTTTTTTTTAGGCA [ACGGA]	0.584 ± 0.0074	0.463 ± 0.017
TTTTTGCAGCATGCTGCGCATTTTTTTTTTTTTTTTTAAT [TAATT]	0.576 ± 0.018	0.412 ± 0.019
TTTTTTGATGAGCATGATCATTTTTTTTTTTTTTTCCTCG [GCTCC]	0.471 ± 0.02	0.393 ± 0.057
TTTTTGCATGCGCAGCATGATTTTTTTTTTTTTTTTATTC [CTTAT]	0.394 ± 0.023	0.292 ± 0.018
TTTTTTGCTGATGCTGATGATTTTTTTTTTTTTTTACACC [CCACA]	0.369 ± 0.022	0.275 ± 0.012
TTTTTTGATGCGCATGAGCATTTTTTTTTTTTTTTCATCT [TCTAC]	0.48 ± 0.021	0.33 ± 0.034
TTTTTTCAGCAGCATGATGATTTTTTTTTTTTTTTGTTCC [CCTTG]	0.351 ± 0.018	0.275 ± 0.015
TTTTTTGCTCAGCATGCTGATTTTTTTTTTTTTTTAGTAC [CATGA]	0.485 ± 0.006	0.371 ± 0.027
TTTTTGCATCATGAGCAGCATTTTTTTTTTTTTTTTGCTT [TTCGT]	0.514 ± 0.029	0.384 ± 0.038
TTTTTTGCTGATCATCATCATTTTTTTTTTTTTTTACGGG [GGGCA]	0.6553 ± 0.0063	0.579 ± 0.05

Sequence	background-corrected fluorescence (dye: Cy3 (3' terminal))	background-corrected fluorescence (dye: Cy5 (3' terminal))
TTTTTTGCTCATGCGCATGCTTTTTTTTTTTTTTTAGATA [ATAGA]	0.582 ± 0.025	0.434 ± 0.019
TTTTTTGCTGATCATGCTGCTTTTTTTTTTTTTTTACGAA [AAGCA]	0.575 ± 0.032	0.452 ± 0.026
TTTTTTGCGCAGCAGCAGCATTTTTTTTTTTTTTTATTTT	0.488 ± 0.022	0.381 ± 0.02
TTTTTTCAGCAGCATCATGCTTTTTTTTTTTTTTTGTTGA [AGTTG]	0.632 ± 0.027	0.548 ± 0.046
TTTTTGCATGCGCAGCATGCTTTTTTTTTTTTTTTTATTA [ATTAT]	0.545 ± 0.017	0.409 ± 0.035
TTTTTTCATCAGCAGCAGCATTTTTTTTTTTTTTTGGTTT	0.536 ± 0.02	0.402 ± 0.045
TTTTTTGATCAGCATGCTGCTTTTTTTTTTTTTTTCGTAA [AATGC]	0.553 ± 0.045	0.428 ± 0.024
TTTTTTGAGCATGAGCATCATTTTTTTTTTTTTTTCTCTG [GTCTC]	0.48 ± 0.018	0.352 ± 0.033
TTTTTTGATCATGCGCATGATTTTTTTTTTTTTTTCGATC [CTAGC]	0.457 ± 0.018	0.354 ± 0.027
TTTTTTCATGCTCATGATCATTTTTTTTTTTTTTTGAGCG [GCGAG]	0.654 ± 0.03	0.526 ± 0.059
TTTTTTCAGCATGATGCTGCTTTTTTTTTTTTTTTGTCAA [AACTG]	0.609 ± 0.012	0.453 ± 0.04
TTTTTGCATCAGCATGAGCATTTTTTTTTTTTTTTTGTCT [TCTGT]	0.48 ± 0.021	0.367 ± 0.028
TTTTTTCATGCGCATGAGCATTTTTTTTTTTTTTTGATCT [TCTAG]	0.456 ± 0.055	0.354 ± 0.017
TTTTTGCATCATGATCATCATTTTTTTTTTTTTTTTGCGG [GGCGT]	0.603 ± 0.016	0.543 ± 0.032
TTTTTTGAGCATGAGCATGATTTTTTTTTTTTTTTCTCTC	0.357 ± 0.036	0.284 ± 0.019
TTTTTGCATCAGCATGATCATTTTTTTTTTTTTTTTGTCG [GCTGT]	0.552 ± 0.029	0.392 ± 0.023
